From publication PMC5395944, “Structural basis of inhibition of lipid-linked oligosaccharide flippase PglK by a conformational nanobody” (Scientific Reports, 2017)
“And” between values parts separate entries of the source, which are not always exact repeats. Equal values may be shown once.

Columns and labels:
PglK-E510Q = molecular target: T1, PglK-E510Q (C. jejuni, UniProt Q0P9C4, E510Q); test: crystal structure; settings: both partners purified
T1 construct: also called PglK mutant E510Q; source: E. coli BL21-Gold (DE3), purified from membranes in detergent (NiNTA, size exclusion chromatography)

[1] = molecular target: PglK wild type (lipid-linked oligosaccharide flippase, ABC transporter) from Campylobacter jejuni (C. jejuni, UniProt Q0P9C4); test: cross-linking; 0.1% glutaraldehyde for 30 min, then high-mass MALDI mass spectrometry; PglK 18 μM and Nb 18 μM (1:2 PglK-homodimer:Nb), 10 mM HEPES pH 7.5, 100 mM NaCl, 0.016% LMNG; without nucleotides or with 5 mM MgCl2 and 5 mM ADP or ATP; settings: both partners purified

B1: Nb87 (inhibitory conformational nanobody against PglK) (VHH)
VHH: QVQLQESGGGLVQPGGSLRLSCAASGFTFSSYAMSWVRQAPGKGLEWVSAITSGGGSTSYSDAVKGRFTISRDNAKNTLYLQMNSLKPEDTAVYYCAKGYVVDFLDLAEYDSWGQGTQVTVSS
notes: source: E. coli WK6, periplasmic extract, purified (NiNTA)
stoichiometry N (PglK-E510Q): 1 Nb87 per PglK homodimer
stoichiometry N [1]: 1 Nb87 per PglK homodimer and 2 Nb87 per PglK homodimer
